Assay results from patent US12486322 (ANNEXON, dated 2025).

What was measured:
human C1q [1] = biological target: T1, human C1q (human, UniProt P02745 23-245; P02746 28-253; P02747 29-245); assay: direct ELISA, purified human C1q coated on the plate, luminescence
T1 construct: it describes C1q as having six globular heads; also called hC1q; human serum derived C1q
Protocol: Next day, plates are washed with dPBS thrice and blocked with 3% BSA/PBS for 1 hour at room temperature (RT). […] Following incubation for 1 hour at RT, plates are washed 4× with dPBS 0.05% Tween. Then, alkaline phosphatase (AP) conjugated secondary antibodies to human kappa (Abcam) and human FC (Jackson Immunoresearch), respectively at 2000-4000-fold dilution. After an additional 1 hour of incubation at RT, plates are washed 4× with dPBS 0.05% Tween and luminescence signal was developed with AP substrate (#T2214, Thermo Scientific). Luminescence counts were measured using a luminometer (Spectramax i3×, Molecular Devices). Raw counts were fit using a 4-parameter logistic to derive $EC50$ for human C1q binding (Prism, GraphPad).

human C1q [2] = biological target: T1, human C1q; assay: cell-based or functional assay
human C1q [3] = biological target: T1, human C1q; assay: sandwich ELISA, C1q from human serum captured by JL-1
Excerpt: (§1) Evaluation of binding to serum derived C1q: We compared binding of anti-C1q molecules to C1q from monkey and human serum. Binding to serum derived C1q was preformed using a sandwich ELISA. In this assay, a monoclonal antibody specific to the collagen tail of C1q (JL-1, Abcam) was used to capture the C1q, and then detected using the anti-C1q antibodies, which bind to the globular head groups of C1q. […] Next day, the plates were washed with dPBS (pH 7.4) and blocked with dPBS buffer containing 3% bovine serum albumin (BSA). Diluted serum samples were added to the plates and incubated overnight shaking at 4° C. Human and monkey serum samples were used at 1:2000 dilution in assay buffer, dPBS containing 0.3% BSA and 0.1% tween. Following overnight incubation at 4 C, plates were warmed to room temperature for 2 hours. […] Plates were washed with dPBS with 0.05% tween and then incubated with alkaline phosphatase conjugated anti-human Fc or Kappa antibodies at 1:3000 dilution in assay buffer. Plates were then washed, and detected using an enzyme substrate (T2214, Thermo) and read in a plate reader. Counts were background subtracted and normalized to signal at highest concentration, % normalized values were plotted as a function of concentration for each of the antibodies. Data were fit using a 4-parameter logistic fit to derive $EC50$ of binding and plotted using GraphPad Prism.

[4] = biological target: T2, Cynomolgus serum derived C1q (cynomolgus monkey, UniProt A0A2K5WJV6 23-243; A0A2K5WNK0 28-253); assay: cell-based or functional assay
human C1q [5] = biological target: T1, human C1q; assay: cell-based or functional assay; remark: listed apart in the source
[6] = biological target: T2, Cynomolgus serum derived C1q; assay: sandwich ELISA, serum C1q captured by JL-1; the high end is tied to the single-arm antibody by Table 1 (2.1)
Excerpt: as §1

[7] = biological target: T2, Cynomolgus serum derived C1q; assay: sandwich ELISA, C1q from cynomolgus serum captured by JL-1
Excerpt: as §1

[8] = biological target: T2, Cynomolgus serum derived C1q; assay: sandwich ELISA, serum C1q captured by JL-1; the high end is tied to cynomolgus serum by Table 1
Excerpt: as §1

human C1q [9] = biological target: T1, human C1q; assay: sandwich ELISA, serum C1q captured by JL-1; the low end is tied to human serum by Table 1
Excerpt: as §1

[10] = biological target: T2, Cynomolgus serum derived C1q; assay: sandwich ELISA, serum C1q captured by JL-1; cynomolgus against human serum
Excerpt: as §1

T1 sequence (P02745 23-245 limits assumed, chain 1 of 3): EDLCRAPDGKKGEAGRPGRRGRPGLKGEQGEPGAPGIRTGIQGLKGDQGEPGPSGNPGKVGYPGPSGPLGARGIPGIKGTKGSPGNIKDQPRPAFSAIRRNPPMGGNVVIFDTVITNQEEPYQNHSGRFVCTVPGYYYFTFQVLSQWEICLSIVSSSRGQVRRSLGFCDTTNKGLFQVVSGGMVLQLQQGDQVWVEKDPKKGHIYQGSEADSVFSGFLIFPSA
T1 sequence (P02746 28-253 limits assumed, chain 2 of 3): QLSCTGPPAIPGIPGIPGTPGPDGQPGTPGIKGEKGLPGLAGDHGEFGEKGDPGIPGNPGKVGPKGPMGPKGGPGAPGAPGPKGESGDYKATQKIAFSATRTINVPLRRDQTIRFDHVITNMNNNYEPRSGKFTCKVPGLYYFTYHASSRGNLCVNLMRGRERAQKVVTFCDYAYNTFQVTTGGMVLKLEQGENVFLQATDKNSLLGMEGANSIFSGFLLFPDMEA
T1 sequence (P02747 29-245 limits assumed, chain 3 of 3): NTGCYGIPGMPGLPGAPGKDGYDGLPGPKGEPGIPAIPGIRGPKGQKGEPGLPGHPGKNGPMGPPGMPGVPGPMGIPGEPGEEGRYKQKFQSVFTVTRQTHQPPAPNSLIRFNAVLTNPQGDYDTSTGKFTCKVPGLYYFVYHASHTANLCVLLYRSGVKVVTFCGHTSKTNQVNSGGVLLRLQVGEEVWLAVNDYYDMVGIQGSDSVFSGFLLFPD

EC50 (human C1q [1]): 0.05 nM
EC50 (human C1q [3]): 178 nM
fold weaker binding EC50 in cynomolgus serum compared to human serum [6]: 1 to 2 fold
EC50 [7]: 378 nM
EC50 [8]: 150 to 400 nM
EC50 (human C1q [9]): 150 to 400 nM
Ratio Cyno:Human (binding EC50) [10]: 2.1
B1: anti-C1q single-arm antibody (with IgG4 and Fcγ receptor binding site mutation) (antibody)
light: DVQITQSPSSLSASLGERATINCRASKSINKYLAWYQQKPGKAPKLLIYSGSTLQSGIPARFSGSGSGTDFTLTISSLEPEDFAMYYCQQHNEYPLTFGQGTKLEIKRTVAAPSVFIFPPSDEQLKSGTASVVCLLNNFYPREAKVQWKVDNALQSGNSQESVTEQDSKDSTYSLSSTLTLSKADYEKHKVYACEVTHQGLSSPVTKSFNRGEC
heavy: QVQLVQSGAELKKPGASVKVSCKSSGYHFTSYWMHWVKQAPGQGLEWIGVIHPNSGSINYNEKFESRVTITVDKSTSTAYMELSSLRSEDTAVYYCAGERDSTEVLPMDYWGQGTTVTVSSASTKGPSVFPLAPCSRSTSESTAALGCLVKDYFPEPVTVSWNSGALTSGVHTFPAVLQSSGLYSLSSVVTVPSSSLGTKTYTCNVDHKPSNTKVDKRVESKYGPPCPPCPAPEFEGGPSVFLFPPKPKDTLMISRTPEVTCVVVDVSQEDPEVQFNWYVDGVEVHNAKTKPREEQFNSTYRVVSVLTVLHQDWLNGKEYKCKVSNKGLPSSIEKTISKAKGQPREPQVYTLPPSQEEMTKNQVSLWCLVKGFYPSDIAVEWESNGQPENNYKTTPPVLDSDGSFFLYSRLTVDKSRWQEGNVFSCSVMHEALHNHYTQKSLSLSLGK
chain: ESKYGPPCPPCPAPEFEGGPSVFLFPPKPKDTLMISRTPEVTCVVVDVSQEDPEVQFNWYVDGVEVHNAKTKPREEQFNSTYRVVSVLTVLHQDWLNGKEYKCKVSNKGLPSSIEKTISKAKGQPREPQVYTLPPSQEEMTKNQVSLSCAVKGFYPSDIAVEWESNGQPENNYKTTPPVLDSDGSFFLVSRLTVDKSRWQEGNVFSCSVMHEALHNHYTQKSLSLSLGK
notes: The third chain is the N-terminally truncated heavy chain (hinge-CH2-CH3, hole mutations); also called single-arm molecule; anti-C1q single-arm antibody (monovalent)
IC50 for inhibition of serum hemolysis (human C1q [2]): 3 to 10 nM
IC50 for hemolysis inhibition (nM), Cyno serum [4]: 5.5 nM
IC50 for hemolysis inhibition, Ratio Cyno:Human [4]: 0.6
IC50 for hemolysis inhibition (nM), Human serum (human C1q [5]): 9.9 nM
